This passage reports fold increase in total spectrum counts (TSC) of phosphorylated peptides of the substrate after in vitro kinase reaction with CDK6/D3 (mass spectrometry) results from PMC10844593.

Assay [1] deals with Flag-tagged human AMPK-α1 fusion protein (human) (UniProt Q13131).
The target of assay [2] is Flag-tagged human AMPK-α2 fusion protein (human) (UniProt P54646).
The target of assay [3] is Flag-tagged human CHREBP fusion protein (human) (UniProt Q9NP71).
Flag-tagged human CHREBP fusion protein (human), sequence (Q9NP71 whole entry, the tested form may be a part): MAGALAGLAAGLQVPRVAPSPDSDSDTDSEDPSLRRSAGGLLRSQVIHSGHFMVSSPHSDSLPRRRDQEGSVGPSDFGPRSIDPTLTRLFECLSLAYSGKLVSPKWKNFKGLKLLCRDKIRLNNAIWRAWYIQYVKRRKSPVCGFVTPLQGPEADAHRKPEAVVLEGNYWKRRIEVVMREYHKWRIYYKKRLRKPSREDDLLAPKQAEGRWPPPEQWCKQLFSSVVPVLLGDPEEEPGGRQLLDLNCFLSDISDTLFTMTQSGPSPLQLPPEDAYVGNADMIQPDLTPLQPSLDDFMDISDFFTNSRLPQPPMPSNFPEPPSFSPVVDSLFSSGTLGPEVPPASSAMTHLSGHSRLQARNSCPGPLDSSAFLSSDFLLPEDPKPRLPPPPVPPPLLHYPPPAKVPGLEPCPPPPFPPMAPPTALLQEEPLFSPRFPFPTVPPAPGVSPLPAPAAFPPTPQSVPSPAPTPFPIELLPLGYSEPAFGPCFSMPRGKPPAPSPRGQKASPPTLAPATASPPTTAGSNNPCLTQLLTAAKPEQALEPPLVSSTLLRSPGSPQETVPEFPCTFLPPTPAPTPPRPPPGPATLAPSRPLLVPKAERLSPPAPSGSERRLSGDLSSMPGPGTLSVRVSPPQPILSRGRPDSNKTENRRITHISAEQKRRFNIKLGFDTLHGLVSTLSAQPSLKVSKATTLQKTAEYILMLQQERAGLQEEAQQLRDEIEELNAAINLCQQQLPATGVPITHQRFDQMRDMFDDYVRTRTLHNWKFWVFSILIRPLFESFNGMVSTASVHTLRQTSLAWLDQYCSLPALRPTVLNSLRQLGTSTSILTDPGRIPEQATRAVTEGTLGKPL

active CDK6/Cyclin D3 kinase, sequence (Q00534 whole entry): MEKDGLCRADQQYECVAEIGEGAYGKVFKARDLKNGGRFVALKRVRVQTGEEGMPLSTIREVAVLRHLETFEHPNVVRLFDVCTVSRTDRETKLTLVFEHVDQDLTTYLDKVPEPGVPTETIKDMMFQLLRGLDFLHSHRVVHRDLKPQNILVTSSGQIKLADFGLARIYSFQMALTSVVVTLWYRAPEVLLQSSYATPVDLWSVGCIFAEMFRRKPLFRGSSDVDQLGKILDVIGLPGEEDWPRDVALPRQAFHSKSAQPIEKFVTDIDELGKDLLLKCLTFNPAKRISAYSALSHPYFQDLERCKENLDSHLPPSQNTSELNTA
active CDK6/Cyclin D3 kinase, sequence (P30281 whole entry): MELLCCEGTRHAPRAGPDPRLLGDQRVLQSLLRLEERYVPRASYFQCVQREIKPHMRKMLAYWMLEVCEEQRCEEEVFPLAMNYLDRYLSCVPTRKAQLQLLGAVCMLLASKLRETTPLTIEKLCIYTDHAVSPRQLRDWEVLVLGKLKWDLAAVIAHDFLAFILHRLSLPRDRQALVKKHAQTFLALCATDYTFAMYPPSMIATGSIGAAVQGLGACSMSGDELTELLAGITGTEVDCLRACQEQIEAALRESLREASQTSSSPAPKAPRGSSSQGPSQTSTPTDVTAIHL
Flag-tagged human AMPK-α2 fusion protein (human), sequence (P54646 whole entry, the tested form may be a part): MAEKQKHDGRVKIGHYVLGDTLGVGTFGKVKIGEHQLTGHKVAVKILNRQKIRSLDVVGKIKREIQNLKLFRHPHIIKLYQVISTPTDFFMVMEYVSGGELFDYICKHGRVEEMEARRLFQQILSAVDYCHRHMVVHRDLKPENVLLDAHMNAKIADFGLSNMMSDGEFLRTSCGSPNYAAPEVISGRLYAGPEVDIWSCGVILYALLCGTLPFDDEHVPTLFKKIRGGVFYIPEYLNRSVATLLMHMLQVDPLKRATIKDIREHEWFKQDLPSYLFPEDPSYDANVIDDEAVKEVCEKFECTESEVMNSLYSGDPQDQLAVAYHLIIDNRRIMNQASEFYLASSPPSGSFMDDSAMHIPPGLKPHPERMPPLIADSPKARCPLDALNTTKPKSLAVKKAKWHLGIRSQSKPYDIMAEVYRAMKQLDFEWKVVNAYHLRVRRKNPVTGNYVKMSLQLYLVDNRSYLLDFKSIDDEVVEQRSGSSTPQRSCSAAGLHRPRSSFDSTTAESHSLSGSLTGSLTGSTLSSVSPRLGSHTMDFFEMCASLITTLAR
Flag-tagged human AMPK-α1 fusion protein (human), sequence (Q13131 whole entry, the tested form may be a part): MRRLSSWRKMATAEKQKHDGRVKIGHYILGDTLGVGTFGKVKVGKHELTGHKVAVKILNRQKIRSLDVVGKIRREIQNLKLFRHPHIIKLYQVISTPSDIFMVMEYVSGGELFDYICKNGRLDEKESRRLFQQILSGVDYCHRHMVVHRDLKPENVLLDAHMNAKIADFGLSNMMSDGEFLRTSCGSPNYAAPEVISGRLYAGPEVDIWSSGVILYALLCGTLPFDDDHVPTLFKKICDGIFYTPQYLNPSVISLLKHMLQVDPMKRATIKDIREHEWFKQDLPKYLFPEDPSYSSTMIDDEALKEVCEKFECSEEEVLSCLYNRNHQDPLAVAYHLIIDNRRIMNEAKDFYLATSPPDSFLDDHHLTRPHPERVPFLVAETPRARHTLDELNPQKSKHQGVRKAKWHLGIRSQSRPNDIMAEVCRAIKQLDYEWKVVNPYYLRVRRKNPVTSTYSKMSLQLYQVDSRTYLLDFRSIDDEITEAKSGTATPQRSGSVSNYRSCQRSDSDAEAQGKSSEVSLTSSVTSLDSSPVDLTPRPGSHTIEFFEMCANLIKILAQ

Take “active CDK6/Cyclin D3 kinase (from UniProt Q00534 1-326; P30281 1-292) (complex)”: the fold increase in total spectrum counts (TSC) of phosphorylated peptides of the substrate after in vitro kinase reaction with CDK6/D3 (mass spectrometry) came to 14.7 fold in assay [1], 46.8 fold in assay [2] and 6.43 fold in assay [3].
